Assay results: PMC9079172, “BAG6 prevents the aggregation of neurodegeneration-associated fragments of TDP43” (iScience, 2022)

Target: T1, BAG6, wild type, FLAG-tagged, exogenously overexpressed (pRK5-FLAG-Bag6) (UniProt P46379 1-1132)
T1 construct: BAG6, wild type, from pRK5-FLAG-Bag6 (Liu et al., 2014); In HEK293T cells the anti-BAG6 antibody also precipitates endogenous BAG6; also called wild type BAG6; ^fBAG6; source: HEK293T or BAG6-KO HEK293T, transfected, in lysate; not shown: FLAG, N-terminal, kept
T1 sequence (P46379 whole entry): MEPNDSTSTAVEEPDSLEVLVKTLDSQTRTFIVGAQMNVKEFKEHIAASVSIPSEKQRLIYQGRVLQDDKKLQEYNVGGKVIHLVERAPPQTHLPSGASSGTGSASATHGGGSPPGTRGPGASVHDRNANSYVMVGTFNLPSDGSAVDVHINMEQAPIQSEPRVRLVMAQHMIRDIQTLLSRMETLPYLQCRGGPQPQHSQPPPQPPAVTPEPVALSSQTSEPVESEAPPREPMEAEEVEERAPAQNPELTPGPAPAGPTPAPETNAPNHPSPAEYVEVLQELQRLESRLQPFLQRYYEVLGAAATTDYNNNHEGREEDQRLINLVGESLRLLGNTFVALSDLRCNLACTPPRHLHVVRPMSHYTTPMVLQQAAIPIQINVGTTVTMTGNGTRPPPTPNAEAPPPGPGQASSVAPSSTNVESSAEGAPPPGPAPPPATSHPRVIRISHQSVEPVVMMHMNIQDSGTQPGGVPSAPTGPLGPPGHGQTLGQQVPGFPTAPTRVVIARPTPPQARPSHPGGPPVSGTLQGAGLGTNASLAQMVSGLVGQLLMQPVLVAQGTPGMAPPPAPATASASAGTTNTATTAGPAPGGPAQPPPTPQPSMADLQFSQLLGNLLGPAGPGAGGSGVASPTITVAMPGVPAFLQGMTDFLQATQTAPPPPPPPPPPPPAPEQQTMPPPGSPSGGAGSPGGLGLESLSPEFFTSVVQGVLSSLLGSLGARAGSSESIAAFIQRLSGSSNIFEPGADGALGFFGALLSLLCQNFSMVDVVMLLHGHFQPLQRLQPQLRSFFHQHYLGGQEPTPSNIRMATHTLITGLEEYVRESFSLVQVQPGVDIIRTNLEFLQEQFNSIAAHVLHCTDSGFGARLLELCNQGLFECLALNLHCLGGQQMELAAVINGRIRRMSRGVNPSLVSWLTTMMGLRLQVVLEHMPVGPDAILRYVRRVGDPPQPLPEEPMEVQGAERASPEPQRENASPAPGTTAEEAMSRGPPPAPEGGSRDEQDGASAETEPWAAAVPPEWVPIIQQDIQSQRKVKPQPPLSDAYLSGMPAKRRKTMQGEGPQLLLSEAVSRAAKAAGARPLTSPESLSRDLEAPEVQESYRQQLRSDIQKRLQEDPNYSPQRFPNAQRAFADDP
Test: co-IP; anti-BAG6 IP from soluble fractions of HEK293T cells overexpressing the fragments and BAG6 or BAG6ΔUBL; blots with anti-TDP43, anti-FLAG or anti-Myc; lysis/wash buffer 50 mM HEPES pH 7.5, 10% glycerol, 0.05% NP-40, 150 mM NaCl, 4°C
Conditions: partners not purified

B1: TDP43^219 (Val^219-TDP43^f), C-terminal fragment of human TDP43, amino acids 219 - 414, bearing N-terminal Val and a C-terminal FLAG tag (domain or fragment, UniProt Q13148 219-414, looked up)
chain: VVFIPKPFRAFAFVTFADDQIAQSLCGEDLIIKGISVHISNAEPKHNSNRQLERSGRFGGNPGGFGNQGGFGNSRGGGAGLGNNQGSNMGGGMNFGAFSINPAMMAAAQAALQSSWGMMGMLASQQNQSGPSGNNQNQGNMQREPNQAFGSGNNSYSGSNSGAAIGWGSASNAGSGSGFNGGFGSSMDSKSSGWGM
notes: the part up to the last residue of Ub is cut off co-translationally; not shown: FLAG, C-terminal, kept
Q: With B1 as the binder, how does the “fold affinity relative to TDP43^247 (densitometry of the co-immunoprecipitate)” value read?
A: ~5 fold
